Results: patent US20250101113A1

Biological target: human CD94 on cells (human) (UniProt Q13241)
Assay: cell-based or functional assay

Sequence of UniProt Q13241 (Q13241 whole entry): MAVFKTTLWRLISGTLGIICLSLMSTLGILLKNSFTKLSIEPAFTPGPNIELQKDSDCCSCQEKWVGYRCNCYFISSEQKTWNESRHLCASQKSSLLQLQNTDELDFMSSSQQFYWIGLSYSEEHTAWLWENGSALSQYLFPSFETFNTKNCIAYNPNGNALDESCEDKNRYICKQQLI

## commercial murine anti-CD94 antibody (clone DX22 from Biolegend Catalog #305502)
  CD107a expression on IL-2-activated NK cells co-cultured with HLA-E-expressing SP-53 cells (% of cells): 16%
